Our source for the IC50 values is US20250163121A1 (AKSTON BIOSCIENCES, published 2025).

The labels stand for the following.
B1: insulin-Fc fusion protein of SEQ ID NO: 26 (insulin polypeptide SEQ ID NO: 5, linker SEQ ID NO: 9, canine IgGB Fc fragment SEQ ID NO: 12) (Fc fusion)
chain: FVNQHLCGSDLVEALALVCGERGFFYTDPTGGGPRRGIVEQCCHSICSLYQLENYCNGGGGAGGGGDCPKCPAPEMLGGPSVFIFPPKPKDTLLIARTPEVTCVVVDLDPEDPEVQISWFVDGKQMQTAKTQPREEQFNGTYRVVSVLPIGHQDWLKGKQFTCKVNNKALPSPIERTISKARGQAHQPSVYVLPPSREELSKNTVSLTCLIKDFFPPDIDVEWQSNGQQEPESKYRTTPPQLDEDGSYFLYSKLSVDKSRWQRGDTFICAVMHEALHNHYTQESLSHSPG
notes: Disulfide-linked homodimer made in HEK293 cells; 93% homodimer
B2: insulin-Fc fusion protein of SEQ ID NO: 29 (SEQ ID NO: 26 with the mutation cNg-NB139-S; canine IgGB Fc fragment SEQ ID NO: 15) (Fc fusion)
chain: B1 chain with N139S
notes: Non-glycosylated homodimer made in HEK293 cells; 98.3% homodimer; also called cNg-S
B3: insulin-Fc fusion protein of SEQ ID NO: 22 (insulin polypeptide SEQ ID NO: 5, linker SEQ ID NO: 9, canine IgGA Fc fragment SEQ ID NO: 11) (Fc fusion)
chain: FVNQHLCGSDLVEALALVCGERGFFYTDPTGGGPRRGIVEQCCHSICSLYQLENYCNGGGGAGGGGRCTDTPPCPVPEPLGGPSVLIFPPKPKDILRITRTPEVTCVVLDLGREDPEVQISWFVDGKEVHTAKTQSREQQFNGTYRVVSVLPIEHQDWLTGKEFKCRVNHIDLPSPIERTISKARGRAHKPSVYVLPPSPKELSSSDTVSITCLIKDFYPPDIDVEWQSNGQQEPERKHRMTPPQLDEDGSYFLYSKLSVDKSRWQQGDPFTCAVMHETLQNHYTDLSLSHSPG
notes: Disulfide-linked homodimer made in HEK293 cells
B4: insulin-Fc fusion protein of SEQ ID NO: 31 (SEQ ID NO: 26 with des hinge D and the mutation cNg-NB138-K; canine IgGB Fc fragment SEQ ID NO: 16) (Fc fusion)
chain: FVNQHLCGSDLVEALALVCGERGFFYTDPTGGGPRRGIVEQCCHSICSLYQLENYCNGGGGAGGGGCPKCPAPEMLGGPSVFIFPPKPKDTLLIARTPEVTCVVVDLDPEDPEVQISWFVDGKQMQTAKTQPREEQFKGTYRVVSVLPIGHQDWLKGKQFTCKVNNKALPSPIERTISKARGQAHQPSVYVLPPSREELSKNTVSLTCLIKDFFPPDIDVEWQSNGQQEPESKYRTTPPQLDEDGSYFLYSKLSVDKSRWQRGDTFICAVMHEALHNHYTQESLSHSPG
notes: Non-glycosylated homodimer made in HEK293 cells; 98.1% homodimer; also called cNg-K with des hinge D

Residue numbers refer to the chain shown, from its start.

T1 sequence (P06213 28-1382): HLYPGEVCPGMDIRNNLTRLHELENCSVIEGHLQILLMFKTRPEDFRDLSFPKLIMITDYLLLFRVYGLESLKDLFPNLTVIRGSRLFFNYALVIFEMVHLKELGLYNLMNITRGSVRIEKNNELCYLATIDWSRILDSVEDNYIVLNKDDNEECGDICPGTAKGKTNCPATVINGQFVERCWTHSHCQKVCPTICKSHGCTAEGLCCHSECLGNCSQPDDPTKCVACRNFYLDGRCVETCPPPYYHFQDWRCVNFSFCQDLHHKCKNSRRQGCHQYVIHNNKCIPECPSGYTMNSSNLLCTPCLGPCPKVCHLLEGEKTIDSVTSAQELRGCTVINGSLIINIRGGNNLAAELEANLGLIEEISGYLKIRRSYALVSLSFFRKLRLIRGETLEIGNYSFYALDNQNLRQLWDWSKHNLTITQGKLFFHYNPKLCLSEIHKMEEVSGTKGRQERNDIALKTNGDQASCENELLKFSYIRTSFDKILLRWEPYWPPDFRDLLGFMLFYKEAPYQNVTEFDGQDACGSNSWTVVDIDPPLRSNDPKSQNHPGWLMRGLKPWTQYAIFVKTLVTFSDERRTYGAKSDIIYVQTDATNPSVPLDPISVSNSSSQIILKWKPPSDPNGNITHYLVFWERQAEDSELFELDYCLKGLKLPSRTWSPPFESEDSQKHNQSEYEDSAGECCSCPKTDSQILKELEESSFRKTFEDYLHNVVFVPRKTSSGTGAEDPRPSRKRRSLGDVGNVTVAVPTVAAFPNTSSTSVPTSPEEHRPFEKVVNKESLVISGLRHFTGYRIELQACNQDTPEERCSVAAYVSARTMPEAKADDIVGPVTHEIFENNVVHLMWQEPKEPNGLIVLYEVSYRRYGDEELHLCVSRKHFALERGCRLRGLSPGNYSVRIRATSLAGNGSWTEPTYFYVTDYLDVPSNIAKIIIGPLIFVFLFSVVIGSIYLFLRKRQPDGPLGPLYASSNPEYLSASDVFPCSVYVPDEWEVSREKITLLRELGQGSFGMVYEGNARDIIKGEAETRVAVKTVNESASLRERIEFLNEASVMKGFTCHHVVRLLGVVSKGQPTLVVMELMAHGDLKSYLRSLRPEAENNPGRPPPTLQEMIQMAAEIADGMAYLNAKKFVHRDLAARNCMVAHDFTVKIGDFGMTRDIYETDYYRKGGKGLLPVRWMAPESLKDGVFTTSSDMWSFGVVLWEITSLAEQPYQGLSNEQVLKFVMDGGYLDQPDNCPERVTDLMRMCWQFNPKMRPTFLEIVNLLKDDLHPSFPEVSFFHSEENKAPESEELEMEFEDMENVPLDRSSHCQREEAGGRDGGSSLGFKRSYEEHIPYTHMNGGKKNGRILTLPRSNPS

This test addresses T1, human insulin receptor (on human IM-9 cells) (human, UniProt P06213 28-1382).
T1 construct: whole, on cells; Endogenous receptor on IM-9 cells; the mature receptor is a processed alpha2-beta2 tetramer from one precursor; also called IR
Briefly: competition with biotinylated RHI on human IM-9 cells, flow cytometry, 4 C. As for the experimental part: Biotinylated-RHI was diluted in FACS staining medium to a concentration of 1.25 μg/mL. 40 μL of the serially diluted test compound and 8 μL of 1.25 μg/mL Biotin-RHI were added into each well of a V bottom microtiter plate, mixed by slow vortexing, and placed on ice. 40 μL of an IM-9 cell suspension (8×10^6 cells/mL) was then added to each well by multichannel pipette, mixed again gently and incubated on ice for 30 min to allow competitive binding on the insulin receptor on IM-9 cells. Cells were then washed twice with 275 μL of ice-cold FACS wash buffer (HBSS/2 mM EDTA/0.1% Na-azide+0.5% horse serum) by centrifuging the V-bottom plate at 3000 rpm for 3 min and aspirating the supernatant. Cells were then resuspended in 40 μL of FACS staining medium containing 1:100 diluted Streptavidin-PE (Life Technologies) for 20 min on ice. Cells were then washed once with 275 μL of ice-cold FACS buffer and finally fixed with 3% paraformaldehyde for 10 min at room temp. Cells were then washed once with 275 μL of ice-cold FACS buffer and resuspended in 250 μl of FACS buffer for analysis.
The V-bottom plates containing cells were then analyzed on a Guava 8-HT flow cytometer (Millipore). Biotinylated-RHI binding to insulin receptor was quantitated by the median fluorescence intensity (MFI) of the cells on the FACS FL-2 channel for each concentration of the test compound. Control wells were labeled only with biotinylated-RHI and were used to calculate the percent (%) inhibition resulting from each test compound concentration. The % inhibition by test compounds of biotinylated-RHI binding on IM-9 cells was plotted against log concentrations of the test compound, and the resulting IC50 values were calculated using GraphPad Prism (GraphPad Software, La Jolla, CA) for the test compounds. Lower IC50 values of the test compound therefore indicate greater levels of biotinylated-RHI inhibition at lower concentrations indicating stronger binding of the insulin-Fc fusion protein to the insulin receptor. A control compound, such as unlabeled recombinant human insulin (RHI) was also used as an internal standard to generate an RHI IC50 against which a given compound IC50 could be ratioed (IC50(compound)/IC50(RHI)). Lower IC50 ratios have more similar binding to RHI (stronger binding to insulin receptor), while higher IC50 ratios have weaker binding to the insulin receptor relative to RHI.
As for B1, the IC50 worked out at 28 nM.

As to B2, the IC50 is 145 nM.

Take B3: the IC50 was 2730 nM.

Consider B4, for which the IC50 stood at 147 nM.

Broadly, the IC50 is the concentration needed to halve the response being measured.
